Measurements published in patent US20180155451A1 (published 2018).

Columns and labels:
[1] = target: T1, FcγRIIIa extracellular domain with C-terminal His tag (human, UniProt P08637 17-208); assay: ratio of He/Con_3a to He/Con_2b (FcγRIIIa over FcγRIIb), SPR relative binding
T1 construct: extracellular domain; also called FcgRIIIa; 3a; not shown: His tag at the C terminus
Experimental: The heterodimerized antibodies He Abs in which one of the H chains was introduced with an alteration were assayed for their binding activities to each activating FcγR and inhibitory FcγR according to the method described in Example 4. […] The activating FcγRs in FIGS. 26, 27, 28, and 29 are FcγRIa, FcγRIIa (R), FcγRIIa (H), and FcγRIIIa, respectively.
Analysis of interaction between objective antibody and the FcγR was carried out using Biacore T100 (GE Healthcare). HBS-EP+ (GE Healthcare) was used as the running buffer, and the measurement temperature was set to 25° C. Chips produced by immobilizing the antigen peptide by the amine coupling method to a Series S Sencor Chip CM5 (GE Healthcare), or alternatively, chips produced by allowing preliminarily biotinylated antigen peptides to interact with and immobilize onto a Series S Sensor Chip SA (certified) (GE Healthcare) were used. Antibodies of interest were captured onto an antigen peptide-immobilized chip, and allowed to interact to each FcγR diluted with running buffer. To regenerate and repeatedly use the chip, the antibodies captured on the chip were washed off by reacting 10 mM glycine-HCl, pH 1.5.

[2] = target: T2, FcγRIIb extracellular domain with C-terminal His tag (human, UniProt P31994 43-217); assay: SPR (Biacore), antibody captured via antigen peptide, FcγR as analyte; binding relative to GpH7-A5/GpH7-B3/GpL16-k0 = 100
T2 construct: extracellular domain; also called FcgRIIb; 2b; not shown: His tag at the C terminus
T2 sequence (looked up): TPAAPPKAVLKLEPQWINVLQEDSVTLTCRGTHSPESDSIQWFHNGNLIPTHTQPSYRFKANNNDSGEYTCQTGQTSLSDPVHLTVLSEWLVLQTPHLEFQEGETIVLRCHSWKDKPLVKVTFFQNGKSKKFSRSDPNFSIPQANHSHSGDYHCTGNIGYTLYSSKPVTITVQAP

[3] = target: T1, FcγRIIIa extracellular domain with …; assay: as above
[4] = target: T3, FcγRIIa H (human, UniProt P12318 34-217); assay: SPR (Biacore), antibody captured on antigen-peptide chip, FcγR as analyte; binding relative to GpH7-A5/GpH7-B3/GpL16-k0 = 100
T3 construct: extracellular domain; also called FcgRIIa H type; 2aH
T3 sequence (looked up): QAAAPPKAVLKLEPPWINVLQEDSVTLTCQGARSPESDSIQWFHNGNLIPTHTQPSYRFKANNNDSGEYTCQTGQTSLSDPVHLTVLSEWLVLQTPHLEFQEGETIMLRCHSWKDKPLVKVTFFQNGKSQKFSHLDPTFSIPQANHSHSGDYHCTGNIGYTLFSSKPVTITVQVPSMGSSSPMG

[5] = target: T4, FcγRIIb (human, UniProt P31994 43-217); assay: as above
T4 construct: extracellular domain; also called FcgRIIb; 2b
T4 sequence (looked up): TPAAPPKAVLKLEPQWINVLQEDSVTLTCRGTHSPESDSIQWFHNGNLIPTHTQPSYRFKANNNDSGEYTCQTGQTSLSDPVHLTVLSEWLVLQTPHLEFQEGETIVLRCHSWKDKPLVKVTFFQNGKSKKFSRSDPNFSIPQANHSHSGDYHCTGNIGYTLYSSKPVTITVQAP

[6] = target: T3, FcγRIIa H; assay: ratio of He/Con_2aH to He/Con_2b (relative SPR binding to FcγRIIa H over that of the same antibody to FcγRIIb)

T1 sequence (P08637 17-208): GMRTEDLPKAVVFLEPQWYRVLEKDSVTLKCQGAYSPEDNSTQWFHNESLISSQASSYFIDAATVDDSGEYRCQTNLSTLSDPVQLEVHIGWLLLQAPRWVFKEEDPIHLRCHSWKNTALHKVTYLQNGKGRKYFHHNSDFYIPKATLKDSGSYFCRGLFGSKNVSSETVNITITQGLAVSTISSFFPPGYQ

B1: GpH7-A5/GpH7-B3 variant D270_03V/GpL16-k0 (antibody, human IgG1, kappa)
heavy 1: not shown
heavy 2: not shown
light: DIVMTQSPLSLPVTPGEPASISCQASESLVHSNRNTYLHWYLQKPGQSPQLLIYKVSNRFSGVPDRFSGSGSGTDFTLKISRVEAEDVGVYYCSQNTHVPPTFGQGTKVEIERTVAAPSVFIFPPSDEQLKSGTASVVCLLNNFYPREAKVQWKVDNALQSGNSQESVTEQDSKDSTYSLSSTLTLSKADYEKHKVYACEVTHQGLSSPVTKSFNRGEC
notes: He Ab: the mutation stands only in the GpH7-B3-derived H chain; also called He Ab D270V
IIIa/IIb (He_3a/2b) [1]: 1.52 | He/Con_2b [2]: 39.5 relative (control = 100) | He/Con_3a [3]: 60.3 relative (control = 100)

B2: GpH7-A5/GpH7-B3 variant D270_07I/GpL16-k0 (antibody, human IgG1, kappa)
heavy 1: not shown
heavy 2: not shown
light: DIVMTQSPLSLPVTPGEPASISCQASESLVHSNRNTYLHWYLQKPGQSPQLLIYKVSNRFSGVPDRFSGSGSGTDFTLKISRVEAEDVGVYYCSQNTHVPPTFGQGTKVEIERTVAAPSVFIFPPSDEQLKSGTASVVCLLNNFYPREAKVQWKVDNALQSGNSQESVTEQDSKDSTYSLSSTLTLSKADYEKHKVYACEVTHQGLSSPVTKSFNRGEC
notes: He Ab: the mutation stands only in the GpH7-B3-derived H chain; also called He Ab D270I
IIIa/IIb (He_3a/2b) [1]: 1.68 | He/Con_2b [2]: 41.5 relative (control = 100) | He/Con_3a [3]: 69.6 relative (control = 100)

B3: GpH7-A5/GpH7-B3 variant D270_15Y/GpL16-k0 (antibody, human IgG1, kappa)
heavy 1: not shown
heavy 2: not shown
light: DIVMTQSPLSLPVTPGEPASISCQASESLVHSNRNTYLHWYLQKPGQSPQLLIYKVSNRFSGVPDRFSGSGSGTDFTLKISRVEAEDVGVYYCSQNTHVPPTFGQGTKVEIERTVAAPSVFIFPPSDEQLKSGTASVVCLLNNFYPREAKVQWKVDNALQSGNSQESVTEQDSKDSTYSLSSTLTLSKADYEKHKVYACEVTHQGLSSPVTKSFNRGEC
notes: He Ab: the mutation stands only in the GpH7-B3-derived H chain; also called He Ab D270Y
IIIa/IIb (He_3a/2b) [1]: 1.22 | He/Con_2b [2]: 44.9 relative (control = 100) | He/Con_3a [3]: 54.5 relative (control = 100)

B4: GpH7-A5/GpH7-B3 variant D270_18N/GpL16-k0 (antibody, human IgG1, kappa)
heavy 1: not shown
heavy 2: not shown
light: DIVMTQSPLSLPVTPGEPASISCQASESLVHSNRNTYLHWYLQKPGQSPQLLIYKVSNRFSGVPDRFSGSGSGTDFTLKISRVEAEDVGVYYCSQNTHVPPTFGQGTKVEIERTVAAPSVFIFPPSDEQLKSGTASVVCLLNNFYPREAKVQWKVDNALQSGNSQESVTEQDSKDSTYSLSSTLTLSKADYEKHKVYACEVTHQGLSSPVTKSFNRGEC
notes: He Ab: the mutation stands only in the GpH7-B3-derived H chain; also called He Ab D270N
IIIa/IIb (He_3a/2b) [1]: 1.4 | He/Con_2b [2]: 40.3 relative (control = 100) | He/Con_3a [3]: 56.5 relative (control = 100)

B5: GpH7-A5/GpH7-B3 variant E269_19Q/GpL16-k0 (antibody, human IgG1, kappa)
heavy 1: not shown
heavy 2: not shown
light: DIVMTQSPLSLPVTPGEPASISCQASESLVHSNRNTYLHWYLQKPGQSPQLLIYKVSNRFSGVPDRFSGSGSGTDFTLKISRVEAEDVGVYYCSQNTHVPPTFGQGTKVEIERTVAAPSVFIFPPSDEQLKSGTASVVCLLNNFYPREAKVQWKVDNALQSGNSQESVTEQDSKDSTYSLSSTLTLSKADYEKHKVYACEVTHQGLSSPVTKSFNRGEC
notes: He Ab: the mutation stands only in the GpH7-B3-derived H chain; also called He Ab E269Q
IIIa/IIb (He_3a/2b) [1]: 1.47 | He/Con_2b [2]: 44.3 relative (control = 100) | He/Con_3a [3]: 65 relative (control = 100)

B6: GpH7-A5/GpH7-B3 variant D270_12R/GpL16-k0 (antibody, human IgG1, kappa)
heavy 1: not shown
heavy 2: not shown
light: DIVMTQSPLSLPVTPGEPASISCQASESLVHSNRNTYLHWYLQKPGQSPQLLIYKVSNRFSGVPDRFSGSGSGTDFTLKISRVEAEDVGVYYCSQNTHVPPTFGQGTKVEIERTVAAPSVFIFPPSDEQLKSGTASVVCLLNNFYPREAKVQWKVDNALQSGNSQESVTEQDSKDSTYSLSSTLTLSKADYEKHKVYACEVTHQGLSSPVTKSFNRGEC
notes: He Ab: the mutation stands only in the GpH7-B3-derived H chain; also called He Ab D270R
IIIa/IIb (He_3a/2b) [1]: 1.58 | He/Con_2b [2]: 18.3 relative (control = 100) | He/Con_3a [3]: 28.8 relative (control = 100)

B7: GpH7-A5/GpH7-B3 variant D270_08L/GpL16-k0 (antibody, human IgG1, kappa)
heavy 1: not shown
heavy 2: not shown
light: DIVMTQSPLSLPVTPGEPASISCQASESLVHSNRNTYLHWYLQKPGQSPQLLIYKVSNRFSGVPDRFSGSGSGTDFTLKISRVEAEDVGVYYCSQNTHVPPTFGQGTKVEIERTVAAPSVFIFPPSDEQLKSGTASVVCLLNNFYPREAKVQWKVDNALQSGNSQESVTEQDSKDSTYSLSSTLTLSKADYEKHKVYACEVTHQGLSSPVTKSFNRGEC
notes: He Ab: the mutation stands only in the GpH7-B3-derived H chain; also called He Ab D270L
IIIa/IIb (He_3a/2b) [1]: 1.34 | He/Con_2b [2]: 53.6 relative (control = 100) | He/Con_3a [3]: 71.8 relative (control = 100)

B8: GpH7-A5/GpH7-B3 variant V266_05P/GpL16-k0 (antibody, human IgG1, kappa)
heavy 1: not shown
heavy 2: not shown
light: DIVMTQSPLSLPVTPGEPASISCQASESLVHSNRNTYLHWYLQKPGQSPQLLIYKVSNRFSGVPDRFSGSGSGTDFTLKISRVEAEDVGVYYCSQNTHVPPTFGQGTKVEIERTVAAPSVFIFPPSDEQLKSGTASVVCLLNNFYPREAKVQWKVDNALQSGNSQESVTEQDSKDSTYSLSSTLTLSKADYEKHKVYACEVTHQGLSSPVTKSFNRGEC
notes: Heterodimerized anti-glypican-3 IgG1; substitution in only one H chain (the GpH7-B3 chain); also called He Ab
He/Con_2aH [4]: 0.7 % of HeCon Ab | He/Con_2b [5]: 0.4 % of HeCon Ab | He_2aH/2b (IIaH/IIb) [6]: 1.91
